Target: T1, EsCas13d, nuclease-dead (Eubacterium siraeum, UniProt B0MS50, R295A;H300A;R849A;H854A)
T1 sequence: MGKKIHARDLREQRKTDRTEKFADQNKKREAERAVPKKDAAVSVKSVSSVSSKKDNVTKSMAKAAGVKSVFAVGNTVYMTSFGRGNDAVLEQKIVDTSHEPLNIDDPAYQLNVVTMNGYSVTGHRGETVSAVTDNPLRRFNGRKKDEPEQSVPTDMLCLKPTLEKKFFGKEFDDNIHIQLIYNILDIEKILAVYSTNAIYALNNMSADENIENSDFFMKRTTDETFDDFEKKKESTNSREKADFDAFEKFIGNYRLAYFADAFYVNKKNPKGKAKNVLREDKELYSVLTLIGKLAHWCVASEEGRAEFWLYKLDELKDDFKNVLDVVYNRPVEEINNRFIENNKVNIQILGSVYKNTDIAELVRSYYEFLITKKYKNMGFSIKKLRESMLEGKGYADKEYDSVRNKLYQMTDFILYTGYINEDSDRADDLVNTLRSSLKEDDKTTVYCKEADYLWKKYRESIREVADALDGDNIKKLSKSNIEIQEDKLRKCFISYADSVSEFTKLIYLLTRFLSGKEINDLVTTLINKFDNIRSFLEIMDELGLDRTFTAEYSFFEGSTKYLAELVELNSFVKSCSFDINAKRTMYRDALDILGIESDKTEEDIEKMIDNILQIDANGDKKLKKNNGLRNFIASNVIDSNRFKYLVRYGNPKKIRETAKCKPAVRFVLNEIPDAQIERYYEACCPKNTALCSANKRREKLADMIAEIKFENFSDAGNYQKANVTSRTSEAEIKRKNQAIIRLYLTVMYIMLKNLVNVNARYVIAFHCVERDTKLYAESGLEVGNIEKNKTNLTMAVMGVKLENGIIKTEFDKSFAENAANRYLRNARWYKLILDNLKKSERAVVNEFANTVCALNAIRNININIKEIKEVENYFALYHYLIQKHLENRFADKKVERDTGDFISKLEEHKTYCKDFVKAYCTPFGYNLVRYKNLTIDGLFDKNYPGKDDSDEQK
Test: crRNA (strand 1, pre-loaded); Mg2+; 40 mM Tris-HCl pH 7.5, 150 mM NaCl, 6 mM MgCl2, 1 mM DTT, 0.1% Tween-20, 0.2 mg/ml BSA; 25 C; 10 min per concentration, then washed
Conditions: tags: His6-TwinStrep-SUMO cleaved; N-terminal SNAP kept (SNAP-Surface 488); label: 3' end held by stalled T7 RNA polymerase

B1: target 2 MT 5'PFS GUU 3'PFS AAA (mixed)
RNA 1: CACCCGUGCAAAAUUGCAGGGGUCUAAAACCUUCUCCAAAUUGUUUCAUCCU
RNA 2: GGGAAUGGAUCCACAUCUACGAAUUCGUUAGGAUGAAACAAUUUGGAGAAGAAAAGAUCGGAAGAGCACACGU
Work on B1 yielded a Kd of 14 ± 7 nM.

B2: target 2 MT 5'PFS CAU 3'PFS AGA (mixed)
RNA 1: CACCCGUGCAAAAUUGCAGGGGUCUAAAACCUUCUCCAAAUUGUUUCAUCCU
RNA 2: GGGAAUGGAUCCACAUCUACGAAUUCCAUAGGAUGAAACAAUUUGGAGAAGAGAAGAUCGGAAGAGCACACGU
In the case of B2, the Kd is reported as 2.8 ± 0.6 nM.

B3: target 2 MT 5'PFS GUU 3'PFS AAG (mixed)
RNA 1: CACCCGUGCAAAAUUGCAGGGGUCUAAAACCUUCUCCAAAUUGUUUCAUCCU
RNA 2: GGGAAUGGAUCCACAUCUACGAAUUCGUUAGGAUGAAACAAUUUGGAGAAGAAGAGAUCGGAAGAGCACACGU
Work on B3 yielded a Kd of 9.3 ± 0.8 nM.

B4: target 2 MT 5'PFS UGU 3'PFS CAG (mixed)
RNA 1: CACCCGUGCAAAAUUGCAGGGGUCUAAAACCUUCUCCAAAUUGUUUCAUCCU
RNA 2: GGGAAUGGAUCCACAUCUACGAAUUCUGUAGGAUGAAACAAUUUGGAGAAGCAGAGAUCGGAAGAGCACACGU
B4 was tested, and the Kd was 9 ± 0.9 nM.

B5: target 2 MT 5'PFS UAU 3'PFS UGU (mixed)
RNA 1: CACCCGUGCAAAAUUGCAGGGGUCUAAAACCUUCUCCAAAUUGUUUCAUCCU
RNA 2: GGGAAUGGAUCCACAUCUACGAAUUCUAUAGGAUGAAACAAUUUGGAGAAGUGUAGAUCGGAAGAGCACACGU
For B5, the Kd was 29.1 ± 3.4 nM.

B6: target 2 MT 5'PFS AGC 3'PFS CGG (mixed)
RNA 1: CACCCGUGCAAAAUUGCAGGGGUCUAAAACCUUCUCCAAAUUGUUUCAUCCU
RNA 2: GGGAAUGGAUCCACAUCUACGAAUUCAGCAGGAUGAAACAAUUUGGAGAAGCGGAGAUCGGAAGAGCACACGU
Binder B6 has a Kd of 5.8 ± 1 nM.

B7: target 2 MT 5'PFS UCU 3'PFS UGC (mixed)
RNA 1: CACCCGUGCAAAAUUGCAGGGGUCUAAAACCUUCUCCAAAUUGUUUCAUCCU
RNA 2: GGGAAUGGAUCCACAUCUACGAAUUCUCUAGGAUGAAACAAUUUGGAGAAGUGCAGAUCGGAAGAGCACACGU
Binder B7 has a Kd of 11.7 ± 2.1 nM.

B8: target 2 MT 5'PFS CUU 3'PFS ACC (mixed)
RNA 1: CACCCGUGCAAAAUUGCAGGGGUCUAAAACCUUCUCCAAAUUGUUUCAUCCU
RNA 2: GGGAAUGGAUCCACAUCUACGAAUUCCUUAGGAUGAAACAAUUUGGAGAAGACCAGAUCGGAAGAGCACACGU
Work on B8 yielded a Kd of 10.5 ± 2.2 nM.

B9: target 2 MT 5'PFS UGU 3'PFS CAC (mixed)
RNA 1: CACCCGUGCAAAAUUGCAGGGGUCUAAAACCUUCUCCAAAUUGUUUCAUCCU
RNA 2: GGGAAUGGAUCCACAUCUACGAAUUCUGUAGGAUGAAACAAUUUGGAGAAGCACAGAUCGGAAGAGCACACGU
With B9 the Kd was 16 ± 2.5 nM.

B10: target 2 MT 5'PFS CUU 3'PFS ACU (mixed)
RNA 1: CACCCGUGCAAAAUUGCAGGGGUCUAAAACCUUCUCCAAAUUGUUUCAUCCU
RNA 2: GGGAAUGGAUCCACAUCUACGAAUUCCUUAGGAUGAAACAAUUUGGAGAAGACUAGAUCGGAAGAGCACACGU
Binder B10 has a Kd of 6.3 ± 0.9 nM.

B11: target 2 MT 5'PFS CUU 3'PFS ACA (mixed)
RNA 1: CACCCGUGCAAAAUUGCAGGGGUCUAAAACCUUCUCCAAAUUGUUUCAUCCU
RNA 2: GGGAAUGGAUCCACAUCUACGAAUUCCUUAGGAUGAAACAAUUUGGAGAAGACAAGAUCGGAAGAGCACACGU
Work on B11 yielded a Kd of 4.9 ± 0.6 nM.

B12: target 2 MT 5'PFS CAU 3'PFS AGC (mixed)
RNA 1: CACCCGUGCAAAAUUGCAGGGGUCUAAAACCUUCUCCAAAUUGUUUCAUCCU
RNA 2: GGGAAUGGAUCCACAUCUACGAAUUCCAUAGGAUGAAACAAUUUGGAGAAGAGCAGAUCGGAAGAGCACACGU
Binder B12 has a Kd of 3 ± 0.4 nM.

B13: target 2 MT 5'PFS AGC 3'PFS CGC (mixed)
RNA 1: CACCCGUGCAAAAUUGCAGGGGUCUAAAACCUUCUCCAAAUUGUUUCAUCCU
RNA 2: GGGAAUGGAUCCACAUCUACGAAUUCAGCAGGAUGAAACAAUUUGGAGAAGCGCAGAUCGGAAGAGCACACGU
Binder B13 has a Kd of 7.5 ± 0.7 nM.

B14: target 2 MT 5'PFS AGC 3'PFS UGC (mixed)
RNA 1: CACCCGUGCAAAAUUGCAGGGGUCUAAAACCUUCUCCAAAUUGUUUCAUCCU
RNA 2: GGGAAUGGAUCCACAUCUACGAAUUCAGCAGGAUGAAACAAUUUGGAGAAGUGCAGAUCGGAAGAGCACACGU
B14 showed a Kd of 8.2 ± 1.4 nM.

B15: target 2 MT 5'PFS UAU 3'PFS UGA (mixed)
RNA 1: CACCCGUGCAAAAUUGCAGGGGUCUAAAACCUUCUCCAAAUUGUUUCAUCCU
RNA 2: GGGAAUGGAUCCACAUCUACGAAUUCUAUAGGAUGAAACAAUUUGGAGAAGUGAAGAUCGGAAGAGCACACGU
Binder B15 has a Kd of 37 ± 9 nM.

B16: target 2 MT 5'PFS GUC 3'PFS CAU (mixed)
RNA 1: CACCCGUGCAAAAUUGCAGGGGUCUAAAACCUUCUCCAAAUUGUUUCAUCCU
RNA 2: GGGAAUGGAUCCACAUCUACGAAUUCGUCAGGAUGAAACAAUUUGGAGAAGCAUAGAUCGGAAGAGCACACGU
B16 was tested, and the Kd was 10.3 ± 1.4 nM.

B17: target 2 MT 5'PFS AGA 3'PFS AAC (mixed)
RNA 1: CACCCGUGCAAAAUUGCAGGGGUCUAAAACCUUCUCCAAAUUGUUUCAUCCU
RNA 2: GGGAAUGGAUCCACAUCUACGAAUUCAGAAGGAUGAAACAAUUUGGAGAAGAACAGAUCGGAAGAGCACACGU
Work on B17 yielded a Kd of 5.8 ± 1 nM.

B18: target 2 MT 5'PFS GUA 3'PFS CAG (mixed)
RNA 1: CACCCGUGCAAAAUUGCAGGGGUCUAAAACCUUCUCCAAAUUGUUUCAUCCU
RNA 2: GGGAAUGGAUCCACAUCUACGAAUUCGUAAGGAUGAAACAAUUUGGAGAAGCAGAGAUCGGAAGAGCACACGU
For B18, the Kd was 9.6 ± 1.1 nM.

B19: target 2 MT 5'PFS AGC 3'PFS CGA (mixed)
RNA 1: CACCCGUGCAAAAUUGCAGGGGUCUAAAACCUUCUCCAAAUUGUUUCAUCCU
RNA 2: GGGAAUGGAUCCACAUCUACGAAUUCAGCAGGAUGAAACAAUUUGGAGAAGCGAAGAUCGGAAGAGCACACGU
With B19 the Kd was 15 ± 5 nM.

B20: target 2 MT 5'PFS UAU 3'PFS UGC (mixed)
RNA 1: CACCCGUGCAAAAUUGCAGGGGUCUAAAACCUUCUCCAAAUUGUUUCAUCCU
RNA 2: GGGAAUGGAUCCACAUCUACGAAUUCUAUAGGAUGAAACAAUUUGGAGAAGUGCAGAUCGGAAGAGCACACGU
B20 gave a Kd of 30 ± 6 nM.

B21: target 2 MT 5'PFS CUU 3'PFS ACG (mixed)
RNA 1: CACCCGUGCAAAAUUGCAGGGGUCUAAAACCUUCUCCAAAUUGUUUCAUCCU
RNA 2: GGGAAUGGAUCCACAUCUACGAAUUCCUUAGGAUGAAACAAUUUGGAGAAGACGAGAUCGGAAGAGCACACGU
For B21, the Kd was 4.4 ± 0.5 nM.

B22: target 2 MT 5'PFS UCU 3'PFS UGA (mixed)
RNA 1: CACCCGUGCAAAAUUGCAGGGGUCUAAAACCUUCUCCAAAUUGUUUCAUCCU
RNA 2: GGGAAUGGAUCCACAUCUACGAAUUCUCUAGGAUGAAACAAUUUGGAGAAGUGAAGAUCGGAAGAGCACACGU
For B22, the Kd was 14.5 ± 3.5 nM.

B23: target 2 MT 5'PFS AGA 3'PFS AAA (mixed)
RNA 1: CACCCGUGCAAAAUUGCAGGGGUCUAAAACCUUCUCCAAAUUGUUUCAUCCU
RNA 2: GGGAAUGGAUCCACAUCUACGAAUUCAGAAGGAUGAAACAAUUUGGAGAAGAAAAGAUCGGAAGAGCACACGU
B23 was tested, and the Kd was 4.5 ± 1.2 nM.

B24: target 2 MT 5'PFS AGA 3'PFS AAG (mixed)
RNA 1: CACCCGUGCAAAAUUGCAGGGGUCUAAAACCUUCUCCAAAUUGUUUCAUCCU
RNA 2: GGGAAUGGAUCCACAUCUACGAAUUCAGAAGGAUGAAACAAUUUGGAGAAGAAGAGAUCGGAAGAGCACACGU
For B24, the Kd was 7.1 ± 1.3 nM.

B25: target 2 MT 5'PFS GAG 3'PFS AGA (mixed)
RNA 1: CACCCGUGCAAAAUUGCAGGGGUCUAAAACCUUCUCCAAAUUGUUUCAUCCU
RNA 2: GGGAAUGGAUCCACAUCUACGAAUUCGAGAGGAUGAAACAAUUUGGAGAAGAGAAGAUCGGAAGAGCACACGU
For B25, the Kd was 4.9 ± 0.5 nM.

B26: target 1 insU 3' of 22,insA 3' of 4 (mixed)
RNA 1: CACCCGUGCAAAAAUGCAGGGGUCUAAAACUGAGCGGAUAACCUCUCUAUGG
RNA 2: GGGAAUGGAUCCACAUCUACGAAUUCGUACUCAUAGAGAGGUUAUCCGCAUCACCGAGAUCGGAAGAGCACACGU
In the case of B26, the Kd is reported as 23 ± 1.9 nM.

B27: target 1 G5A,A20C (mixed)
RNA 1: CACCCGUGCAAAAAUGCAGGGGUCUAAAACUGAGCGGAUAACCUCUCUAUGG
RNA 2: GGGAAUGGAUCCACAUCUACGAAUUCGUACCCUAGAGAGGUUAUCCACUCACCGAGAUCGGAAGAGCACACGU
For B27, the Kd was 88 ± 13 nM.

B28: target 1 A9C,A16C (mixed)
RNA 1: CACCCGUGCAAAAAUGCAGGGGUCUAAAACUGAGCGGAUAACCUCUCUAUGG
RNA 2: GGGAAUGGAUCCACAUCUACGAAUUCGUACCAUAGCGAGGUUCUCCGCUCACCGAGAUCGGAAGAGCACACGU
In the case of B28, the Kd is reported as 86 ± 16 nM.

Reference: paper PMC10786891, “Massively parallel profiling of RNA-targeting CRISPR-Cas13d”
